IntAct's records for PubMed 25601757

Biological target: wt1_human WT1 (UniProt P19544)
Sequence (P19544 whole entry): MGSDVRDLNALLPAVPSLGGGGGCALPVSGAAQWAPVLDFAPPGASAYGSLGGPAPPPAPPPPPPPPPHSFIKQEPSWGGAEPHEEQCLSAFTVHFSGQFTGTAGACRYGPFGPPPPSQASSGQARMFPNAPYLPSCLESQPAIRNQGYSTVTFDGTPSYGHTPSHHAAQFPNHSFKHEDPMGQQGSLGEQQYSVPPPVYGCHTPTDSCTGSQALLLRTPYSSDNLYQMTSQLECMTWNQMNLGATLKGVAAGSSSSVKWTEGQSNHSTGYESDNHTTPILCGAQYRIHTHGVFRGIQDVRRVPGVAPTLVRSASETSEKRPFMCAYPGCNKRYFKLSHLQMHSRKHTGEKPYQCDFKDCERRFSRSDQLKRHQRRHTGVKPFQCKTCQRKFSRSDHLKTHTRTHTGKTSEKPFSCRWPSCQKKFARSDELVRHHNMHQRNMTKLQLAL

Substance	effect of a mutation on the interaction
Methylcytosine dioxygenase TET2 (Homo sapiens), Q6N021 A1505T	disrupting interaction strength
Methylcytosine dioxygenase TET2 (Homo sapiens), Q6N021 D1242V	disrupting interaction strength
Methylcytosine dioxygenase TET2 (Homo sapiens), Q6N021 F1368L	decreasing interaction strength
Methylcytosine dioxygenase TET2 (Homo sapiens), Q6N021 G1256D	disrupting interaction strength
Methylcytosine dioxygenase TET2 (Homo sapiens), Q6N021 G1861R	disrupting interaction strength
Methylcytosine dioxygenase TET2 (Homo sapiens), Q6N021 T1884A	disrupting interaction strength

The remaining lines, values ahead:

effect of a mutation on the interaction	Substance
with no effect	Methylcytosine dioxygenase TET2 (Homo sapiens), Q6N021 D1314G
decreasing interaction strength	Methylcytosine dioxygenase TET2 (Homo sapiens), Q6N021 L1340R
disrupting interaction strength	Methylcytosine dioxygenase TET2 (Homo sapiens), Q6N021 P1617H
disrupting interaction strength	Methylcytosine dioxygenase TET2 (Homo sapiens), Q6N021 R1302G
